T1: CD132 receptor (Sinobiological 10555-H08B) (UniProt P31785 23-254)
T1 construct: Bought protein injected over the CD127/IL-7 complex in Biacore; also called common γ chain
T1 sequence (looked up): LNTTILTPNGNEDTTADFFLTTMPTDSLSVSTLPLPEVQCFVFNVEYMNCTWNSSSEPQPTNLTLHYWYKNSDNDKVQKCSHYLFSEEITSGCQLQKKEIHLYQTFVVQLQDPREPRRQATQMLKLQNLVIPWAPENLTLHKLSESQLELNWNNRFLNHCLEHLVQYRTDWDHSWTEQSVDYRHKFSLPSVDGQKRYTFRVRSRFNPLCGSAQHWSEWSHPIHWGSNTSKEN


What was measured:
[1] = target: T1, CD132 receptor (Sinobiological …); assay: Biacore, CD132 injected over the CD127/IL-7 complex on the chip
Method: CD127 (Sinobiological, 10975-H03H-50) was immobilized onto a CM5 biochip at 20 μg/ml and the indicated protein were added at serial concentrations (0.34; 1.03; 3.11; 9.3; 28 nM).

[2] = target: T2, recombinant human PD-1 (Example 2) (human, UniProt Q15116 25-167, limits assumed, biotinylated in the PD-L1 ELISA (site not stated)); assay: competition ELISA: PD-L1 coated, antibody mixed with biotinylated PD-1 at 0.6 ug/mL, streptavidin peroxidase; blocked ligand PD-L1
T2 construct: Biotinylated form in the ELISA on PD-L1; recombinant human PD-1 (100 nM) in the Biacore assay on PD-L2; also called biotinylated recombinant human PD-1; PD-1 recombinant protein
T2 sequence (Q15116 25-167 limits assumed): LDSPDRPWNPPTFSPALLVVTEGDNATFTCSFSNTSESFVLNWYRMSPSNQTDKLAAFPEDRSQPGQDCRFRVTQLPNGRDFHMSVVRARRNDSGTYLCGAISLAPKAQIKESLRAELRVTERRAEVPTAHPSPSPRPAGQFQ

| Binder | Kd [1] [nM] | IC50 (read off the curve) [2] [nM] |
| --- | --- | --- |
| recombinant IL-7 cytokine (rIL7) (Biorad PHP046) (ligand, human, UniProt P13232 26-177, looked up, Bought cytokine) DCDIEGKDGKQYESVLMVSIDQLLDSMKEIGSNCLNNEFNFFKRHICDANKEGMFLFRAARKLRQFLKMNSTGDFDLHLLKVSEGTTILLNCTGQVKGRKPAALGEAQPTKSLEENKSLKEQKKLNDLCFLKRLLQEIKTCWNKILMGTKEH | 198 | – |
| anti-PD1 antibody, chimeric form (antibody, human IgG4 S228P, kappa, V domains shown, also called anti-PD1 alone) VH: QIQLVQSGPELKKPGETVKISCKASGYTFTHYGMNWVKQAPGKGLKWMGWINTNTGEPTYAEEFKGRFAFSLETSASAAFLQINNLKNEDTATYFCAKEREPGMDSWGQGTSVTVSS VL: DVLLTQTPLSLPVSLGDQASISCRSSQNIVHANGNTYLEWYLQKPGQSPKLLIYKVSNRFSGVPDRFSGSGSGTDFTLKITRVEAEDLGVYYCFQGSHVPNTFGGGTKLEIKR | – | ~4 |
